# Experimental data taken from article PMC7484505, “Uncoupling sodium channel dimers restores the phenotype of a pain‐linked Nav1.7 channel mutation” (British Journal of Pharmacology, 2020).
# Biological target: the molecule itself
# Experiment: native gel or EMSA; hrCN-PAGE of digitonin extracts of cRNA-injected X. laevis oocytes (0.1 M sodium phosphate pH 8.0, 1 mM TCEP), non-denaturing conditions; GFP tags visualised by fluorescence scanning; masses judged against hTrpV1-GFP
row,Protein,stoichiometry N
1,"hNav1.7^GFP (natural protein, numbers count on: isoform 3; pCMV6-neo-hNav1.7, Klugbauer et al. 1995; also called hNav1.7/WT; source: X. laevis oocytes, cRNA injected, in detergent extract (cleared supernatant); not shown: GFP, C-terminal, kept) not shown",2
2,"hTRPV1^GFP (natural protein, human, UniProt Q8NER1-1 1-839, looked up, human TRPV1, transcript variant 3, subcloned from pDONR201 into pNKS2; Used as mass marker on the native gel; calculated mass of the GFP-tagged protomer printed as 123 kDa; also called human TRPV1 (transient receptor potential cation channel subfamily V member 1); source: X. laevis oocytes, cRNA injected, in digitonin extract (cleared supernatant); not shown: GFP, C-terminal, kept) MKKWSSTDLGAAADPLQKDTCPDPLDGDPNSRPPPAKPQLSTAKSRTRLFGKGDSEEAFPVDCPHEEGELDSCPTITVSPVITIQRPGDGPTGARLLSQDSVAASTEKTLRLYDRRSIFEAVAQNNCQDLESLLLFLQKSKKHLTDNEFKDPETGKTCLLKAMLNLHDGQNTTIPLLLEIARQTDSLKELVNASYTDSYYKGQTALHIAIERRNMALVTLLVENGADVQAAAHGDFFKKTKGRPGFYFGELPLSLAACTNQLGIVKFLLQNSWQTADISARDSVGNTVLHALVEVADNTADNTKFVTSMYNEILMLGAKLHPTLKLEELTNKKGMTPLALAAGTGKIGVLAYILQREIQEPECRHLSRKFTEWAYGPVHSSLYDLSCIDTCEKNSVLEVIAYSSSETPNRHDMLLVEPLNRLLQDKWDRFVKRIFYFNFLVYCLYMIIFTMAAYYRPVDGLPPFKMEKTGDYFRVTGEILSVLGGVYFFFRGIQYFLQRRPSMKTLFVDSYSEMLFFLQSLFMLATVVLYFSHLKEYVASMVFSLALGWTNMLYYTRGFQQMGIYAVMIEKMILRDLCRFMFVYIVFLFGFSTAVVTLIEDGKNDSLPSESTSHRWRGPACRPPDSSYNSLYSTCLELFKFTIGMGDLEFTENYDFKAVFIILLLAYVILTYILLLNMLIALMGETVNKIAQESKNIWKLQRAITILDTEKSFLKCMRKAFRSGKLLQVGYTPDGKDDYRWCFRVDEVNWTTWNTNVGIINEDPGNCEGVKRTLSFSLRSSRVSGRHWKNFALVPLLREASARDRQSAQPEEVYLRQFSGSLKPEDAEVFKSPAASGEK",4
